Source: US6998123B1, “Osteoporosis treatment with anti-IL-11 antibody” (priority 1998, dated 2006)
Where a chain is given by its changes, count along the chain named. “Also recorded” adds a separate entry of the source. Ends that are not written are not given here.

Key:
Interleukin-11 (IL-11) = experiment: cell-based or functional assay
IL-11 and IL-11R = experiment: productive interaction of IL-11 and IL-11R; parameters: species or system human; conditions: no test named at this place
[1] = test system: murine calvaria cell culture; experiment: bone nodule formation assay with IL-11 antagonists in the presence of exogenous IL-11; assay type: cell-based; conditions: 20 ng/ml exogenous IL-11; for reduction of the inhibitory effect of IL-11 on bone nodule formation: very low levels/concentrations of test substance, 21 days, FIGS. 9, 10
Experimental: Bone nodule formation was measured using standard techniques. Briefly, calvaria cell cultures were established as follows: Calvaria cells were obtained from 2 day old fetal mouse calavariae by collagenase digestion. The cells were then cultured for 21 days in the presence of 0.5 mM ascorbic acid and 10 mM β-glycerophosphate. Where indicated in the experimental descriptions below, IL-11 and the mutant IL-11 receptor of experiment 4 were added to the culture at day 0 and every 3–4 days thereafter until the removal of the medium for analysis. Bone nodule formation was quantified by counting alizarin red stain nodules under a light microscope.
The effect of a gp130 binding region mutant soluble IL-11 receptor of type described in Experiment 4 and produced by the process of Experiment 3 on bone nodule formation in the presence of 20 ng/ml of exogenous IL-11 was assessed, and the results are depicted in FIG. 9. […] Thus, IL-11 antagonists such as mutant IL-11Rs can enhance bone nodule formation.
It was desired to determine if bone nodule formation could be modulated in a manner similar to that reported in Example 6 using an IL-11 antagonist peptide such as the one used in Example 5. To achieve this, the procedure of Example 6 was repeated, with the substitution of peptide 1 for the solubilized mutant IL-11 receptor. The results of this experiment are depicted in FIG. 10.

[2] = test system: cocultures of murine bone marrow and calvaria cells; experiment: TRAP assay: osteoclast formation in cocultures; assay type: cell-based; conditions: for inhibition of IL-11 induced osteoclast formation (TRAP+ multinucleated cells): 20 ng/ml IL-11, 10, 100 or 1000 ng/ml test substance, 9 days, FIGS. 7A, 7B, 8
Source text: Particular IL-11 antagonists useful in the treatment of IL-11 related bone density disorders may be identified using the TRAP assay and the bone nodule formation assay, discussed herein. The TRAP assay is known in the art and involves co-culturing murine calvaria (osteoblasts) and bone marrow cells in vitro and then quantifying osteoclast formation by counting the number of tartrate-resistant acid phosphatase positive (TRAP+) multinucleated cells. […] These potential IL-11 antagonists may be screened to determine if they are IL-11 antagonists by examining their activity in the TRAP assay and the bone nodule formation assay.
Post menopausal osteoporosis is characterized by a general reduction in bone mass, resulting from an imbalance between osteoblast-mediated bone formation and bone resorption by the osteoclast. While the osteoblast is responsible for the formation of new bone or osteoid, it also appears to control the activation and/or number of osteoclasts by releasing cytokines such as IL-6 or IL-11. This process can be examined using a “TRAP assay” which involves co-culturing murine calvaria (osteoblasts) and bone marrow cells in vitro and then quantifying osteoclast formation by counting the number of tartrate-resistant acid phosphatase positive (TRAP+) multinucleated cells. Ovariectomized (OVX) rats or mice provide a satisfactory animal model for postmenopausal women in studies of osteoporosis.
The effect of IL-11 on osteoclast development in cocultures of murine bone marrow and calvaria cells was examined using standard techniques. Briefly, bone marrow cultures were established by removing femurs from mice, dissecting away soft tissue, and removing the distal and proximal ends of the femur. The marrow was then flushed with 5 ml α MEM and 1.0% penicillin-streptomycin using a 25 gauge needle. The bone marrow cells were then suspended to a concentration of 5 000 000 cells per ml in α MEM containing 15% fetal calf serum (charcoal treated) to remove cells adherent to plastic. The non-adherent cells were then co-cultured for an additional 9 days with murine calvaria cells prior to being fixed and stained for TRAPase activity (stains were obtained from Sigma Chemical Co., St. Louis, Mo.). TRAP+ MNC's have the ability to form resorption pits in smooth cortical bone slices and are therefore considered to be of osteoclast origin.
The effect of IL-11 on osteoclast development in cocultures of murine bone marrow and calvaria cells was examined by maintaining these cultures in the presence of various specific concentrations of IL-11 for 9 days. After 9 days of culture, the cells were stained for TRAPase activity and the number of multinucleated TRAP+ cells were determined. The results of this experiment are depicted in Table I. Data are expressed as mean +/− SEM. […]

gp130 = conditions: Karow et al., Biochem J. (1996); cited from earlier work
[3] = test system: murine calvaria cells (primary osteoblasts); experiment: bone nodule formation assay: effect of IL-11 alone; assay type: cell-based; conditions: various concentrations of IL-11; 250 μM ascorbic acid, 10 mM β-glycerol phosphate; FIG. 5
Experimental: The effect of IL-11 on bone formation was examined using the bone nodule formation assay. Murine calvaria cells (primary osteoblasts) were cultured in the presence of 250 μM ascorbic acid and 10 mM β-glycerol phosphate, and in the presence of various amounts of interleukin-11. After culturing, the culture media were plated out and the number of bone nodules per plate was counted.
The results are shown on the accompanying FIG. 5, where number of bone nodules per plate is plotted as the vertical axis, with the different concentrations of interleukin on the horizontal axis, not to scale. Each bar represents the result on experiments containing a different concentration of interleukin-11, as noted on FIG. 5.

IL-11 = target: T1, IL-11 (Homo sapiens, UniProt P20809); conditions: Karow et al., Biochem J. (1996); cited from earlier work
T1 sequence (P20809 22-199): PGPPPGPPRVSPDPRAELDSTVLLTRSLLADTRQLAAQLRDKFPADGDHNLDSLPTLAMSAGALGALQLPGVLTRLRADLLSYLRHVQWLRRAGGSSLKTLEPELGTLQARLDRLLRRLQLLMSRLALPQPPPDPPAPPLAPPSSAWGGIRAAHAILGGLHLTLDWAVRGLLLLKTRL

**Q.** With “H289→Y289 mutant solubilized IL-11 receptor (from UniProt Q14626 24-370)” as the molecule, how does the concentration of mutant receptor allowing enhanced bone nodule formation relative to no exogenous IL-11 (Interleukin-11 (IL-11)) read?
**A.** 10 ng/mL

**Q.** For RRLRASW [SEQ ID NO. 5], which “inhibition of the productive interaction of IL-11 and IL-11R” value (from here on “inhibition … of IL-11 and IL-11R”) (IL-11 and IL-11R) is on record?
**A.** capable of inhibiting the productive interaction of IL-11 and IL-11R

**Q.** Which “reduction of the inhibitory effect of IL-11 on bone nodule formation” value [1] does the source give for RRLRASWTYPASWPCQPHFL [Peptide 1] here?
**A.** able to reduce the inhibitory effects of 20 ng/ml exogenous IL-11

**Q.** And the “inhibition of IL-11 induced osteoclast formation (TRAP+ multinucleated cells)” value (“inhibition … (TRAP+ multinucleated cells)” for short) [2]?
**A.** inhibits IL-11 induced osteoclast formation

**Q.** What about the “inhibition … of IL-11 and IL-11R” value (IL-11 and IL-11R) of the same molecule?
**A.** binds IL-11 and prevents its productive interaction with IL-11R

**Q.** With SILRPDPPQGLRVESVPGYP [SEQ. ID. NO. 6] as the molecule, how does the “inhibition … of IL-11 and IL-11R” value (IL-11 and IL-11R) read?
**A.** inhibit the productive interaction between IL-11 and IL-11R

**Q.** With “Thr Tyr Pro Ala Ser Trp Pro Cys Gln Pro His Phe Leu Leu Lys Phe Arg Leu Gin Tyr (TYPASWPCQPHFLLKFRLQY; listed as Homo sapiens) [Peptide 2, reference compound]” as the molecule, how does the “reduction of the inhibitory effect of IL-11 on bone nodule formation” value [1] read?
**A.** unable to reduce the inhibition of nodule formation by IL-11

**Q.** And the “inhibition … (TRAP+ multinucleated cells)” value [2]?
**A.** does not

B1: IL-11: cytokine interleukin-11, added exogenously to cultures (protein, UniProt P47873 22-199, looked up)
Interleukin-11: PGPPAGSPRVSSDPRADLDSAVLLTRSLLADTRQLAAQMRDKFPADGDHSLDSLPTLAMSAGTLGSLQLPGVLTRLRVDLMSYLRHVQWLRRAGGPSLKTLEPELGALQARLERLLRRLQLLMSRLALPQAAPDQPVIPLGPPASAWGSIRAAHAILGGLHLTLDWAVRGLLLLKTRL
**Q.** What does the source list for B1?
**A.** affinity for gp130 (gp130): below the level of detection; number of bone nodules per plate (bone formation) [3]: can inhibit bone nodule formation; also recorded: inhibits bone formation; effect of IL-11 on osteoclast formation in vitro ([2]; cocultures of murine calvaria and bone marrow cells): potent simulator of osteoclast formation

B2: H289→Y289 mutant solubilized IL-11 receptor: soluble human IL-11 receptor mutated H289 to Y in the gp130 binding region, expressed in BHK cells (protein)
chain: SPCPQAWGPPGVQYGQPGRSVKLCCPGVTAGDPVSWFRDGEPKLLQGPDSGLGHELVLAQADSTDEGTYICQTLDGALGGTVTLQLGYPPARPVVSCQAADYENFSCTWSPSQISGLPTRYLTSYRKKTVLGADSQRRSPSTGPWPCPQDPLGAARCVVHGAEFWSQYRINVTEVNPLGASTRLLDVSLQSILRPDPPQGLRVESVPGYPRRLRASWTYPASWPCQPHFLLKFRLQYRPAQHPAWSTVEPAGLEEVITDAVAGLPYAVRVSARDFLDAGTWSTWSPEAWGTPSTGTIPKEIPAWGQLHTQPEVEPQVDSPAPPRPSLQPHPRLLDHRDSVEQVAVLA
modifications: left off: small tags and cut ends
**Q.** Which “bone nodule formation relative to level without exogenous IL-11” value ([1]; 10 ng/ml mutant receptor, FIG. 9) does the source give for B2 here?
**A.** enhanced bone nodule formation relative to the level observed in the absence of exogenous IL-11

**Q.** And the “reduction of the inhibitory effect of IL-11 on bone nodule formation” value [1]?
**A.** can reverse the effect of exogenous IL-11

**Q.** And the “inhibition … (TRAP+ multinucleated cells)” value [2]?
**A.** capable of inhibiting IL-11-induced osteoclast formation

B3: soluble form of murine interleukin-11 receptor: soluble form of murine IL-11R produced by Karow et al. (protein)
chain: B2 chain with Y266H
modifications: left off: small tags and cut ends
**Q.** With B3 as the molecule, how does the “affinity for IL-11 ligand” value (IL-11) read?
**A.** high affinity
